Test results: paper PMC12684077

Target: RSV prefusion F (PR-DM) (respiratory syncytial virus A) (UniProt P03420)
Experiment: cryo-EM structure

**Q.** Which stoichiometry N does the source give for “RSV prefusion F (PR-DM) (from UniProt P03420) (complex)” here?
**A.** 3
